According to US20260070978A1 (LENTIGEN TECHNOLOGY, published 2026):
Changes are numbered by the printed parent chain.

T1: recombinant human CD19 (human, UniProt P15391 20-291, limits assumed, fluorescent label, kind and site not stated)
T1 construct: soluble labeled antigen titrated on yeast; sorting steps used CD19-Fc, so the labeled antigen may be the Fc fusion; also called labeled CD19; fluorescently tagged antigen
T1 sequence (looked up): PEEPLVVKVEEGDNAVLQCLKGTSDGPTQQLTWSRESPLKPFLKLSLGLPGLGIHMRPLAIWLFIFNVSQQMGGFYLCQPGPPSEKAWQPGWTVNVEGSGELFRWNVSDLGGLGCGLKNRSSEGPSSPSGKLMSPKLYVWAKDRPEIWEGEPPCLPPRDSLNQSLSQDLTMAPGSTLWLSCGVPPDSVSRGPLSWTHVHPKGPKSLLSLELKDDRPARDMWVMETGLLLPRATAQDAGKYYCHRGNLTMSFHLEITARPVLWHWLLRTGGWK

T2: recombinant human CD22 (human, UniProt P20273 20-687, limits assumed, fluorescent label, kind and site not stated)
T2 construct: soluble labeled antigen titrated on yeast; sorting steps used CD22-Fc, so the labeled antigen may be the Fc fusion; also called labeled CD22; fluorescently tagged antigen
T2 sequence (looked up): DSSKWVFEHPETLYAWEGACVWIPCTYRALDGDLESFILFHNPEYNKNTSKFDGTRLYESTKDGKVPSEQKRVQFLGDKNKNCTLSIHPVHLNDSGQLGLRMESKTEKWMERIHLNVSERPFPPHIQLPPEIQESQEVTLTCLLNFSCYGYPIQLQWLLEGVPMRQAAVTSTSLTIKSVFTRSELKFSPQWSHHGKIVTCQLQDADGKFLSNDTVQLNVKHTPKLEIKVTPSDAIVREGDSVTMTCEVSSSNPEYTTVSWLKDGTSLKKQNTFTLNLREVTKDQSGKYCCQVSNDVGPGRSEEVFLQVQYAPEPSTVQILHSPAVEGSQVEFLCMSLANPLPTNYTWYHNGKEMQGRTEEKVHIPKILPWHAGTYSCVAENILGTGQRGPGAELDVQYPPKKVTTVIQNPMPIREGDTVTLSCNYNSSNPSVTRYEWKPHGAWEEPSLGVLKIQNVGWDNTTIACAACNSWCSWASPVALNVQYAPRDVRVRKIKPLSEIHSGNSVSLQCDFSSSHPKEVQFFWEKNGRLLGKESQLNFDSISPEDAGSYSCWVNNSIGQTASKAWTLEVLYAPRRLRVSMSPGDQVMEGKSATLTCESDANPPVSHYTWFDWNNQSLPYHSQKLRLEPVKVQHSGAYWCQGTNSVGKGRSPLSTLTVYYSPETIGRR

B1: human anti-CD19 ScFv binder M19217 (scFv)
chain: EVQLVQSGAEVKKPGASVKVSCKASGYTFTSYYMHWVRQAPGQGLEWMGIINPSGGSTSYAQKFQGRVTMTRDTSTSTVYMELSSLRSEDTAVYYCARSDRGITATDAFDIWGQGTMVTVSSGGGGSGGGGSGGGGSQSVLTQPPSVSVAPGQTAKITCGGSDIGNKNVHWYQQKPGQAPVLVVYDDYDRPSGIPERFSGSNSGDAATLTISTVEVGDEADYFCQVWDSSGDPYWVFGGGTQLTVLG
B2: human anti-CD19 ScFv binder M19217-1 (scFv)
scFv: EVQLVQSGAEVKKPGASVKVSCKASGYTFTSYYMHWVRQAPGQGLEWMGLINPSGGSTSYAQKFQGRVTMTRDTSTSTVYMELSSLRSEDTAVYYCARSDRGITATDAFDIWGQGTMVTVSSGGGGSGGGGSGGGGSQSVLTQPPSVSVAPGRMAKITCGGSDIGNKNVHWYQQKPGQAPVLVVYDDYDRPSGIPERFSGSNSGDAATLTISTVEVGDEADYFCQVWDGSGDPYWMFGGGTQLTVL
notes: also called LTG2065
B3: human anti-CD19 ScFv binder M19217-2 (scFv)
chain: B1 chain with L45F, I50L, G56S, S85N, S148P, T158I, S229G
B4: human anti-CD19 ScFv binder M19217-7 (scFv)
chain: B1 chain with K12N, I50M, A105S, V149L, D189N, A206S, S229G
B5: human anti-CD19 ScFv binder M19217-23 (scFv)
chain: B1 chain with S31G, M48I, I50L, A61E, T69A, N166D, S229G, S230I
B6: human anti-CD19 ScFv binder M19217-29 (scFv)
chain: B1 chain with I50M, V169A, P195S, S229G, Y234F
B7: human anti-CD19 ScFv binder M19217-38 (scFv)
chain: B1 chain with K13R, Q43R, I50L, K63E, T74M, T104S, T154M, D189N, S229G, V245D
B8: human anti-CD19 ScFv binder M19217-40 (scFv)
chain: B1 chain with K13R, E46V, I50L, I157T, F223V, S229G
B9: human anti-CD22 ScFv binder 16P17 (scFv, V domains shown)
VH: QVQLQQSGPGLVKHSQTLSLTCAISGDSVSSNSAAWNWIRQSPSRGLEWLGRTYYRSKWYNDYAVSVKSRITINPDTSKNQFSLQLNSVTPEDTAVYYCAQEVEPHDAFDIWGQGTMVTVSS
VL: DIQMTQSPSSVYASVGDKVTITCRASQDVSGWLAWYQQKPGLAPQLLISGASTLQGEVPSRFSGSGSGTDFTLTISSLQPEDFATYYCQQAKYFPYTFGQGTKLEIK

target: T1, recombinant human CD19; assay: flow cytometry of yeast-displayed scFv with decreasing amounts of labeled CD19
Experimental: To increase the affinity of m19217, a yeast-display m19217 mutant scFv library was created by using error-prone PCR to create random point mutations in scFv gene sequences. After electroporation, the resulting mutant library was then grown overnight at 30° C. for 16 hours in SDCAA medium and then switched into SGCAA medium at 30° C. for another 16 hours. The mutant library was then sorted through MACS (immunomagentic column, Miltenyi Biotec) with CD19-Fc as the capture antigen to downsize the library and to increase the population of mutants that could bind to CD19-Fc. The strongest binders were then selected by double staining the pools with Anti-c-Myc-Alexa 488 and CD19-Fc/Anti-Hu-Fc and selecting for the binders that had the highest binding affinities as well as c-Myc expression levels. This process was then repeated two more times, until flow cytometry of yeast particles with fluorescently tagged antigen yielded average binding affinities of the mutant pools that were increased over the starting construct. Binding affinities were estimated by flow cytometry of yeast pools using decreasing amounts of labeled CD19.

Binder	EC50 [µg/mL]
B1	0.5
B2	< 0.01
B3	< 0.01
B4	< 0.01
B5	< 0.01
B6	< 0.01
B7	< 0.01
B8	< 0.01

target: T2, recombinant human CD22; assay: flow cytometry of yeast-displayed scFv with decreasing amounts of labeled CD22

Binder	EC50 [µg/mL]
B9	< 0.01
